From patent US20140105889A1 (published 2014)
Where a chain is given by its changes, count along the chain named. Names may count otherwise.

T1: human FcγRIIb (human, UniProt P31994 43-217)
T1 construct: also called FcγIIB
T1 sequence: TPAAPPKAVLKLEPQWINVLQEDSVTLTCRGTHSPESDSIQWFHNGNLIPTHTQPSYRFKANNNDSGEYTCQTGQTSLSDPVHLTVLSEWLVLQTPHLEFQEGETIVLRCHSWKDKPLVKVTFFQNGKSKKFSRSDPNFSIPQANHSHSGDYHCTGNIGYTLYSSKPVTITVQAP

T2: human FcγRIIb (human, UniProt P31994 43-217, limits assumed)
T2 construct: also called FcγIIB; hFcgRIIb
T2 sequence: T1 sequence

T3: human FcγRIIa type H (allotype H131) (human, UniProt P12318 36-217)
T3 construct: also called FcγRIIaH; FcγRIIa(H)
T3 sequence: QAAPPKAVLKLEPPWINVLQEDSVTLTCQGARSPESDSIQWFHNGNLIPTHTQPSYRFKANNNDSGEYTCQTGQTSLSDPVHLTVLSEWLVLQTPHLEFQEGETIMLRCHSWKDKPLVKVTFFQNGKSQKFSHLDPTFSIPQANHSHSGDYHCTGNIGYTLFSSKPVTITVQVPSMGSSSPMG

B1: antibody with mPM1H-mIgG1-mF14 heavy chain (antibody)
heavy: DVQLQESGPVLVKPSQSLSLTCTVTGYSITSDHAWSWIRQFPGNKLEWMGYISYSGITTYNPSLKSRISITRDTSKNQFFLQLNSVTTGDTSTYYCARSLARTTAMDYWGQGTSVTVSSAKTTPPSVYPLAPGSAAQTNSMVTLGCLVKGYFPEPVTVTWNSGSLSSGVHTFPAVLQSDLYTLSSSVTVPSSTWPSETVTCNVAHPASSTKVDKKIVPRDCGCKPCICTVPEVSSVFIFPPKPKDVLYITLEPKVTCVVVDISKDDPEVQFSWFVDDVEVHTAQTQPREEQFNSTFRSVSELPIMHQDWLNGKEFKCRVNSAAFPAPIEKTISKTKGRPKAPQVYTIPPPKEQMAKDKVSLTCMITDFFPEDITVEWQWNGQPAENYKNTQPIMDTDGSYFVYSKLNVQKSNWEAGNTFTCSVLHEGLKNHHTEKSLSHSPGK
light: not shown
notes: also called mPM1-mIgG1-mF14; copies: 2 + 2
B2: antibody with mPM1H-mIgG1-mF38 heavy chain (antibody)
heavy: B1 heavy with K429H, N430W
light: not shown
notes: also called mPM1-mIgG1-mF38; copies: 2 + 2
B3: antibody with mPM1H-mIgG1-mF39 heavy chain (antibody)
heavy: B1 heavy with P231K, S235K
light: not shown
notes: also called mPM1-mIgG1-mF39; copies: 2 + 2
B4: antibody with mPM1H-mIgG1-mF40 heavy chain (antibody)
heavy: B1 heavy with P231K, S235K, K429H, N430W
light: not shown
notes: also called mPM1-mIgG1-mF40; copies: 2 + 2
B5: antibody with VH3-IgG1-F821 heavy chain and L(WT)-CK light chain (antibody)
heavy: QVQLQESGPGLVKPSETLSLTCAVSGHSISHDHAWSWVRQPPGEGLEWIGFISYSGITNYNPSLQGRVTISRDNSKNTLYLQMNSLRAEDTAVYYCARSLARTTAMDYWGEGTLVTVSSASTKGPSVFPLAPSSKSTSGGTAALGCLVKDYFPEPVTVSWNSGALTSGVHTFPAVLQSSGLYSLSSVVTVPSSSLGTQTYICNVNHKPSNTKVDKKVEPKSCDKTHTCPPCPAPELRGGPKVFLFPPKPKDTLYISRTPEVTCVVVDVSHEDPEVKFNWYVDGVEVHNAKTKPREEQYNSTYRVVSVLTVLHQDWLNGKEYKCKVSNKALPAPIEKTISKAKGQPREPQVYTLPPSRDELTKNQVSLTCLVKGFYPSDIAVEWESNGQPENNYKTTPPVLDSDGSFFLYSKLTVDKSRWQQGNVFSCSVMHEALHYHYTQKSLSLSP
light: not shown
notes: copies: 2 + 2
B6: antibody with VH3-IgG1-F890 heavy chain and L(WT)-CK light chain (antibody)
heavy: B5 heavy with R237L, K241S, Y438V
light: not shown
notes: copies: 2 + 2
B7: antibody with VH3-IgG1-F939 heavy chain and L(WT)-CK light chain (antibody)
heavy: B5 heavy with Y438V
light: not shown
notes: copies: 2 + 2
B8: antibody with VH3-IgG1-F1009 heavy chain and L(WT)-CK light chain (antibody)
heavy: B5 heavy with T252V, T309Q, V310P, Q313A, Y438V
light: not shown
notes: copies: 2 + 2
B9: F1213 (antibody, human IgG1, kappa, name in EU numbering)
heavy: B5 heavy with R237L, K241S, L253N, Y438V
light: not shown
notes: copies: 2 + 2
B10: F1254 (antibody, name in EU numbering)
heavy: B5 heavy with T309Q, Y438V, Q440R, S442E
light: not shown
notes: copies: 2 + 2
B11: F1269 (antibody, name in EU numbering)
heavy: B5 heavy with H435D, Y438V, Q440K, S442D
light: not shown
notes: copies: 2 + 2
B12: F1270 (antibody, name in EU numbering)
heavy: B5 heavy with S256A, Y438V, Q440K, S442D
light: not shown
notes: copies: 2 + 2
B13: F1272 (antibody, name in EU numbering)
heavy: B5 heavy with S256A, H435D, Y438V, Q440K, S442D
light: not shown
notes: copies: 2 + 2
B14: IL6R-BP147/IL6R-L (antibody, human IgG1)
heavy: B5 heavy with L236Y, R237L, G239D, P240D, K241S, Y254M, K328A, A332K, Y436N, K441E
light: DIQMTQSPSSLSASVGDRVTITCRASQDISSYLNWYQQKPGKAPKLLIYYTSRLHSGVPSRFSGSGSGTDFTFTISSLQPEDIATYYCQQGNTLPYTFGQGTKVEIK
notes: EU numbering
B15: IL6R-BP194/IL6R-L (antibody, human IgG1)
heavy: QVQLQESGPGLVKPSETLSLTCAVSGHSISHDHAWSWVRQPPGEGLEWIGFISYSGITNYNPSLQGRVTISRDNSKNTLYLQMNSLRAEDTAVYYCARSLARTTAMDYWGEGTLVTVSSASTKGPSVFPLAPSSKSTSGGTAALGCLVKDYFPEPVTVSWNSGALTSGVHTFPAVLQSSGLYSLSSVVTVPSSSLGTQTYICNVNHKPSNTKVDKKVEPKSCDKTHTCPPCPAPDYLGDDSVFLFPPKPKDTLMISRTPEVTCVVVDVSDEDGEVKFNWYVDGVEVHNAKTKPREEQYNSTYRVVSVLTVLHQDWLNGKEYKCKVSNAALPKPIEKTISKAKGQPREPQVYTLPPSRDELTKNQVSLTCLVKGFYPSDIAVEWESNGQPENNYKTTPPVLDSDGSFFLYSKLTVDKSRWQQGNVFSCSVMHEALHNHYTQESLSLSP
light: B14 light
notes: Anti-human IL-6 receptor human IgG1 variant; copies: 2 + 2
B16: IL6R-BP184/IL6R-L (antibody, human IgG1)
heavy: B15 heavy with Y236L, D239G, D270H, A328K
light: B14 light
notes: as for B15
B17: IL6R-BP189/IL6R-L (antibody, human IgG1)
heavy: B15 heavy with D235E, Y236L
light: B14 light
notes: as for B15
B18: antibody containing VH3-IgG2-F890 and L(WT)-CK (antibody)
heavy: QVQLQESGPGLVKPSETLSLTCAVSGHSISHDHAWSWVRQPPGEGLEWIGFISYSGITNYNPSLQGRVTISRDNSKNTLYLQMNSLRAEDTAVYYCARSLARTTAMDYWGEGTLVTVSSASTKGPSVFPLAPCSRSTSESTAALGCLVKDYFPEPVTVSWNSGALTSGVHTFPAVLQSSGLYSLSSVVTVPSSNFGTQTYTCNVDHKPSNTKVDKTVERKCCVECPPCPAPPVAGPSVFLFPPKPKDTLYISRTPEVTCVVVDVSHEDPEVQFNWYVDGVEVHNAKTKPREEQFNSTFRVVSVLTVVHQDWLNGKEYKCKVSNKGLPAPIEKTISKTKGQPREPQVYTLPPSREEMTKNQVSLTCLVKGFYPSDIAVEWESNGQPENNYKTTPPMLDSDGSFFLYSKLTVDKSRWQQGNVFSCSVMHEALHYHVTQKSLSLSP
light: not shown
notes: VH3-IgG2 with M252Y/N434Y/Y436V (EU numbering)
B19: antibody containing VH3-IgG2 and L(WT)-CK (antibody)
heavy: B18 heavy with Y250M, Y432N, V434Y
light: not shown
B20: antibody containing VH3-IgG2-F939 and L(WT)-CK (antibody)
heavy: B18 heavy with A234R, S237K
light: not shown
notes: VH3-IgG2 with A235R/S239K/M252Y/N434Y/Y436V (EU numbering)
B21: antibody containing VH3-IgG4-F890 and L(WT)-CK (antibody)
heavy: QVQLQESGPGLVKPSETLSLTCAVSGHSISHDHAWSWVRQPPGEGLEWIGFISYSGITNYNPSLQGRVTISRDNSKNTLYLQMNSLRAEDTAVYYCARSLARTTAMDYWGEGTLVTVSSASTKGPSVFPLAPCSRSTSESTAALGCLVKDYFPEPVTVSWNSGALTSGVHTFPAVLQSSGLYSLSSVVTVPSSSLGTKTYTCNVDHKPSNTKVDKRVESKYGPPCPPCPAPEFLGGPSVFLFPPKPKDTLYISRTPEVTCVVVDVSQEDPEVQFNWYVDGVEVHNAKTKPREEQFNSTYRVVSVLTVLHQDWLNGKEYKCKVSNKGLPSSIEKTISKAKGQPREPQVYTLPPSQEEMTKNQVSLTCLVKGFYPSDIAVEWESNGQPENNYKTTPPVLDSDGSFFLYSRLTVDKSRWQEGNVFSCSVMHEALHYHVTQKSLSLSL
light: not shown
notes: VH3-IgG4 with M252Y/N434Y/Y436V (EU numbering)
B22: antibody containing VH3-IgG4-F939 and L(WT)-CK (antibody)
heavy: B21 heavy with L234R, S238K
light: not shown
notes: VH3-IgG4 with L235R/S239K/M252Y/N434Y/Y436V (EU numbering)
B23: IL6R-BP133/IL6R-L (antibody, human IgG1)
heavy: B15 heavy with D239G, D270H, G273P, A328K
light: B14 light
notes: copies: 2 + 2

These binders were tested against T4, mouse FcγRIV (mouse) (assay: SPR (Biacore), antibody captured on Protein L, mouse FcγR as analyte, pH 7.4, 25 C).
T4 construct: Bought soluble receptor; also called mFcgRIV; mFcgR IV
T4 sequence (A0A0B4J1G0 21-203): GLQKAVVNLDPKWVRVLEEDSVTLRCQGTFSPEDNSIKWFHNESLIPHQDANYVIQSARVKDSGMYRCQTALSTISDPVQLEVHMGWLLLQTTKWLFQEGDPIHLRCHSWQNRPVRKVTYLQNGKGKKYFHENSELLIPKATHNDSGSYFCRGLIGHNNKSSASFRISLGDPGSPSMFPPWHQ
Method: (§1) Binding activity between the antibodies and mouse FcγRI, FcγRII, FcγRIII and FcγRIV (R&D Systems, Sin θ Biological) (hereinafter referred to as mouse FcγRs) was evaluated using the Biacore T100 or T200 (GE Healthcare). The antibodies being tested were captured by Protein L (ACTIGEN) that was immobilized in suitable amounts on the CM4 Sensor Chip (GE Healthcare) by amine coupling. Next, the diluted mouse FcγRs and a running buffer used as a blank were injected to allow interaction with the antibody captured on the sensor chip. A buffer consisting of 20 mmol/L ACES, 150 mmol/L NaCl and 0.05% (w/v) Tween 20 (pH 7.4) was used for the running buffer, and this buffer was also used to dilute the mouse FcγRs. 10 mmol/L glycine-HCl (pH 1.5) was used to regenerate the sensor chip. All measurements were carried out at 25° C.

Point of comparison: B4, “BINDING AMOUNT (RU)” value -8.9 RU. Against it:
- B1 — higher, -8 RU
- B2 — higher, -4.1 RU
- B3 — higher, -3.8 RU

Target: T4, mouse FcγRIV
Assay: as above
Remark: another data set of the same source
Method: as §1

Point of comparison: B7, “BINDING AMOUNT (RU)” value -7.3 RU. Against it:
- B5 — higher, -3.8 RU
- B6 — higher, 230 RU
- B8 — higher, 7.2 RU

What follows are binders tested against T5, human FcRn (human) (assay: SPR (Biacore), pH 7.0, 25 C, antibody captured by Protein L, human FcRn as analyte).
T5 construct: also called hFcRn; soluble human FcRn complexed with β2-microglobulin
T5 sequence (chain, as listed by the source limits assumed, chain 1 of 2): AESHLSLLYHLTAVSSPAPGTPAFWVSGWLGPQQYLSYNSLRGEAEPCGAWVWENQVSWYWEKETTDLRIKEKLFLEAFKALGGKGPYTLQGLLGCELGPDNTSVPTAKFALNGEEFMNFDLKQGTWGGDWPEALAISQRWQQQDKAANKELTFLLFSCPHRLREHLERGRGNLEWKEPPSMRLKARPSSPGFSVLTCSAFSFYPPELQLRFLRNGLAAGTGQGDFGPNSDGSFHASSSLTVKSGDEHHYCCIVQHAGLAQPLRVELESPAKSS
T5 sequence (P61769 21-119 limits assumed, chain 2 of 2): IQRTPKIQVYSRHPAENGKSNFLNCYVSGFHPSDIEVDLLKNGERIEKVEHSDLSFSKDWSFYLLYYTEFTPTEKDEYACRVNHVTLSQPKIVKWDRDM
Method: A kinetic analysis of binding between human FcRn and the aforementioned antibodies was carried out using the Biacore T100 or T200 (GE Healthcare). The antibodies being tested were captured on the CM4 Sensor Chip (GE Healthcare) on which a suitable amount of Protein L (ACTIGEN) was suitably immobilized by amine coupling. Next, diluted human FcRn and a running buffer used as a blank were injected to allow the human FcRn to interact with the antibody captured on the sensor chip. A buffer consisting of 50 mmol/L sodium phosphate, 150 mmol/L NaCl and 0.05% (w/v) Tween 20 (pH 7.0 or pH 7.4) was used for the running buffer, and each buffer was also used to dilute the human FcRn. 10 mmol/L glycine-HCl (pH 1.5) was used to regenerate the sensor chip. All measurements of binding were carried out at 25° C. The KD(M) of each antibody to human FcRn was calculated based on kinetics parameters, i.e., the association rate constant ka (1/Ms) and the dissociation rate constant kd (1/s) calculated from a sensorgram obtained by the measurement. The Biacore T100 or T200 Evaluation Software (GE Healthcare) was used to calculate each parameter.

Point of comparison: B10, Kd 64.2 nM. Against it:
- B9 — 9.9-fold higher, 633 nM
- B11 — 2.6-fold higher, 169 nM
- B12 — 1.8-fold higher, 118 nM
- B13 — 2.7-fold higher, 171 nM

The binders below were run against T6, FcγRIIIa type V (human, UniProt P08637 17-208, limits assumed) (assay: SPR (Biacore), captured antibody, FcγR as analyte, method of Example 14).
T6 construct: also called FcγRIIIaV; FcγRIIIa(V)
T6 sequence (P08637 other isoform, or with tags, fused parts or gaps limits assumed): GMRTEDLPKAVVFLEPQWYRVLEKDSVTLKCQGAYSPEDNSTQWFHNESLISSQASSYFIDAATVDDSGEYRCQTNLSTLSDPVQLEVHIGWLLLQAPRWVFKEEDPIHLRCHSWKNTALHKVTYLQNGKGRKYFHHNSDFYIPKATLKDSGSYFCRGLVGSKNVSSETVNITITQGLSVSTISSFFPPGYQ

B14 was tested, and the Kd was 35000 nM.

The binders below were run against T1, human FcγRIIb (assay: SPR (Biacore); KD of parent IL6R-B3/IL6R-L for FcγRIIb divided by KD of the variant for FcγRIIb).
From the text: (§2) Furthermore, KD(IIaR)/KD(IIb) and KD(IIaH)/KD(IIb) in the table respectively represent the value obtained by dividing the KD value of each variant for FcγRIIaR by the KD value of each variant for FcγRIIb, and the value obtained by dividing the KD value of each variant for FcγRIIaH by the KD value of each variant for FcγRIIb.

Point of comparison: B16, “KD(IIb) of the parent polypeptide/KD(IIb) of the altered polypeptide” value 24.5. Against it:
- B15 — higher, 59.4
- B17 — higher, 41.8

These binders were tested against T7, human FcγRIIIa(F) (human, UniProt P08637 17-208, limits assumed) (assay: SPR (Biacore), antibody captured by Protein L, FcγR as analyte, pH 7.4, 25°C; amount normalised to captured antibody).
T7 construct: also called FcgRIIIaF; hFcgRIIIa(F)
T7 sequence (P08637 other isoform, or with tags, fused parts or gaps limits assumed): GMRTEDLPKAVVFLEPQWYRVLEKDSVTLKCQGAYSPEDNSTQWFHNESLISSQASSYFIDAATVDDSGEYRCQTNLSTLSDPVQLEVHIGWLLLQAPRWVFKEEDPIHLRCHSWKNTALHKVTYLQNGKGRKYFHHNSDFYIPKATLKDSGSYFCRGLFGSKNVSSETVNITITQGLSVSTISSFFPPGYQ
Method: Binding activity between the antibodies and human FcγRIa, FcγRIIa(H), FcγRIIa(R), FcγRIIb and FcγRIIIa(F) (hereinafter referred to as human FcγRs) was evaluated using the Biacore T100 or T200 (GE Healthcare). The antibodies being tested were captured by Protein L (ACTIGEN) that was immobilized in suitable amounts on the CM4 Sensor Chip (GE Healthcare) by amine coupling. Next, the diluted human FcγRs and a running buffer used as a blank were injected to allow interaction with the antibodies captured on the sensor chip. A buffer consisting of 20 mmol/L ACES, 150 mmol/L NaCl and 0.05% (w/v) Tween 20 (pH 7.4) was used for the running buffer, and this buffer was also used to dilute the human FcγRs. 10 mmol/L glycine-HCl (pH 1.5) was used to regenerate the sensor chip. All measurements were carried out at 25° C.

Point of comparison: B21, “BINDING AMOUNT (RU)” value 3.4 RU. Against it:
- B18 — higher, 9.3 RU
- B19 — higher, 16.3 RU
- B20 — lower, 0.6 RU
- B22 — lower, -1.7 RU

Each binder was assayed against T2, human FcγRIIb (assay: SPR KD for FcγRIIb of parent IL6R-B3/IL6R-L divided by that of this variant).
From the text: as §2

With B23 the “KD(IIb) of the parent polypeptide/KD(IIb) of the altered polypeptide” value was 5.5.

Each binder was assayed against T3, human FcγRIIa type H (allotype H131) (assay: SPR (Biacore), antibody captured on the chip, FcγR as analyte).

Point of comparison: B17, Kd 2100 nM. Against it:
- B15 — 3.1-fold higher, 6500 nM
- B16 — within 1.5-fold, 3000 nM

These binders were tested against T8, human FcγRIIIa type V (allotype V158) (human, UniProt P08637 17-208, limits assumed) in the same assay as above.
T8 construct: the assay used allotype V158; also called FcγRIIIaV; FcγRIIIa(V)

Point of comparison: B17, Kd 49000 nM. Against it:
- B15 — 1.8-fold lower, 27000 nM
- B16 — within 1.5-fold, 66000 nM
